The data set deals with T1, T4 Dda E94C/A360C (Enterobacteria phage T4, UniProt P32270 SEQ:1-439, E94C/A360C/(ΔM1)G1G2).
T1 sequence: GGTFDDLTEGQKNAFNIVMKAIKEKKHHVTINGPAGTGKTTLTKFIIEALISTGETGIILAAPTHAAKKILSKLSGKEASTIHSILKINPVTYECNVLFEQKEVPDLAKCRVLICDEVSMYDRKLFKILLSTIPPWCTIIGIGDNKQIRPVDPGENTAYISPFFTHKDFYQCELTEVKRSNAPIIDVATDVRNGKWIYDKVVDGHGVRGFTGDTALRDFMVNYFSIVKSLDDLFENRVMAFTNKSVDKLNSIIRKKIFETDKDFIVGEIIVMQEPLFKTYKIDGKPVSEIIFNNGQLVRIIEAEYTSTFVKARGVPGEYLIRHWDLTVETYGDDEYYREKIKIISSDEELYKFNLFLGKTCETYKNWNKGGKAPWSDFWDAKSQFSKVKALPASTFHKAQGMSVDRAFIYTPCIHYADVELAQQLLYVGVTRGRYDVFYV
Put plainly: FP; 25 mM potassium phosphate, 151.5 mM KCl, pH 8.0, 10 mM MgCl2, 25 C, 60 min; exact value only in figure. As to conditions: label: FAM on thymine 37. The method, then: Two custom fluorescent substrates were used to assess the ability of T4 Dda—E94C/A360C helicase to bind to linear (SEQ ID NO: 64) and circular (SEQ ID NO: 65) single-stranded DNA. […] As the helicase bound to either fluorescent substrate in a buffered solution (25 mM potassium phosphate, 151.5 mM KCl, pH8.0, 10 mM MgCl₂), the fluorescence anisotropy (a property relating to the speed of tumbling of the DNA substrate in solution) increased. The lower the amount of helicase needed to effect an increase in anisotropy, the tighter the binding affinity between the DNA and helicase (FIG. 3).
T4 Dda—E94C/A360C was buffer exchanged into the binding buffer (25 mM potassium phosphate, 151.5 mM KCl, pH8.0, 10 mM MgCl₂) and then serially diluted over a concentration range of 0.02 nM to 750 nM. Each sample concentration was then mixed with linear or circular single-stranded DNA (1 nM of SEQ ID NO: 64 or 65) giving a final concentration range of T4 Dda—E94C/A360C of 0.01 nM to 375 nM and the fluorescence anisotropy assessed over the course of 60 min at 25° C.

The values below come from US20160257942, “MODIFIED HELICASES” (Oxford Nanopore Technologies Ltd., published 2016).

B1: 44 nt linear ssDNA (ssDNA)
DNA: TTTTTTTTTTTTTTTTTTTTTTTTTTTTTTTTTTTTTTTTTTTT
The term Kd denotes a measure of binding affinity in units of concentration. A higher Kd goes with weaker binding. Turning to B1, the Kd was < 15 nM.
